Source: publication PMC4664265, “Substrate-Induced Dimerization of Engineered Monomeric Variants of Triosephosphate Isomerase from Trichomonas vaginalis” (PLoS ONE, 2015)

How the values were obtained:
[1] = molecular target: TvTIM1 I45G (Trichomonas vaginalis) (UniProt A2EGX9)
[2] = molecular target: TvTIM1 I45G (Trichomonas vaginalis) (UniProt A2EGX9); assay: SEC; gel filtration at 7 mg/ml (~260 μM) in Tris pH 7.4, 100 mM NaCl; dimer to monomers
[3] = molecular target: TvTIM1 I45G-Q52C double mutant (Trichomonas vaginalis) (UniProt A2EGX9)
[4] = molecular target: TvTIM1 I45F (Trichomonas vaginalis) (UniProt A2EGX9)
[5] = molecular target: TvTIM1 I45Y (Trichomonas vaginalis) (UniProt A2EGX9)
[6] = molecular target: TvTIM1 I45A (Trichomonas vaginalis) (UniProt A2EGX9)
[7] = molecular target: TvTIM1 I45A (Trichomonas vaginalis) (UniProt A2EGX9); assay: AUC
[8] = molecular target: TvTIM1 I45A (Trichomonas vaginalis) (UniProt A2EGX9); assay: SEC; gel filtration at 7 mg/ml (~260 μM) in Tris pH 7.4, 100 mM NaCl; dimer to monomers
[9] = molecular target: the molecule itself; assay: as above
[10] = molecular target: the molecule itself; assay: AUC; sedimentation velocity, 20°C, 129,024 rcf, absorbance at 280 nm, c(s) with SEDFIT; protein 7 to 35 μM, no ligand

TvTIM1 I45G (from UniProt A2EGX9) (enzyme)
Kcat/Km (substrate DGAP, coupled assay, 25°C; enzyme at 5 nM) [1]: 40800 M⁻¹ s⁻¹
percent of the total protein in the dimer peak [2]: 6%

TvTIM1 I45G-Q52C double mutant (from UniProt A2EGX9 1-252) (enzyme)
Kcat/Km of I45G-Q52C before cross-linking (substrate DGAP, coupled assay, 25°C) [3]: 39700 M⁻¹ s⁻¹
Kcat/Km of the purified cross-linked I45G-Q52C dimer (substrate DGAP, coupled assay, 25°C) [3]: 2.5e+06 M⁻¹ s⁻¹

TvTIM1 I45F (from UniProt A2EGX9) (enzyme)
Kcat/Km (substrate DGAP, coupled assay, 25°C; enzyme at 10 nM) [4]: 33300 M⁻¹ s⁻¹

TvTIM1 I45Y (from UniProt A2EGX9) (enzyme)
Kcat/Km (substrate DGAP, coupled assay, 25°C; enzyme at 12 nM) [5]: 12200 M⁻¹ s⁻¹

TvTIM1 I45A (from UniProt A2EGX9) (enzyme)
Kcat/Km (substrate DGAP, coupled assay, 25°C; enzyme at 2 nM) [6]: 198000 M⁻¹ s⁻¹
percent dimer with 20 μM PGH [7]: 17%
percent dimer with 250 μM PGH [7]: 38%
percent dimer with 600 μM PGH [7]: 38%
percent dimer with 1000 μM PGH [7]: 44%
percent dimer with 2000 μM PGH [7]: 46%
percent of the total injected protein in the dimer peak [8]: 13%
percent of the total protein in the dimer peak [8]: 3%

B1: TvTIM1 I45V (enzyme)
chain: MRTFFVGGNWKANPKTVEEAEKLIEMLNGAKVEGNVEVVVAAPFVFLPTLQQKLRKDWKVSAENVFTKPNGAFTGEVTVPMIKSFGIEWTILGHSERRDILKEDDEFLAAKAKFALENGMKIIYCCGEHLSEREAGKASEFVSAQIEKMIPAIPAGKWDDVVIAYEPIWAIGTGKVASTQDAQEMCKVIRDILAAKVGADIANKVRILYGGSVKPNNCNELAACPDVDGFLVGGASLEPGFINIVNSNVHSK
stoichiometry N [9]: 2

B2: TvTIM1 I45L (enzyme)
chain: MRTFFVGGNWKANPKTVEEAEKLIEMLNGAKVEGNVEVVVAAPFLFLPTLQQKLRKDWKVSAENVFTKPNGAFTGEVTVPMIKSFGIEWTILGHSERRDILKEDDEFLAAKAKFALENGMKIIYCCGEHLSEREAGKASEFVSAQIEKMIPAIPAGKWDDVVIAYEPIWAIGTGKVASTQDAQEMCKVIRDILAAKVGADIANKVRILYGGSVKPNNCNELAACPDVDGFLVGGASLEPGFINIVNSNVHSK
stoichiometry N [9]: 2

B3: Triosephosphate isomerase 1 from Trichomonas vaginalis, wild type (enzyme, UniProt A2EGX9 1-252, looked up)
chain: MRTFFVGGNWKANPKTVEEAEKLIEMLNGAKVEGNVEVVVAAPFIFLPTLQQKLRKDWKVSAENVFTKPNGAFTGEVTVPMIKSFGIEWTILGHSERRDILKEDDEFLAAKAKFALENGMKIIYCCGEHLSEREAGKASEFVSAQIEKMIPAIPAGKWDDVVIAYEPIWAIGTGKVASTQDAQEMCKVIRDILAAKVGADIANKVRILYGGSVKPNNCNELAACPDVDGFLVGGASLEPGFINIVNSNVHSK
notes: triosephosphate isomerase TvTIM1 of Trichomonas vaginalis; Homodimer in solution (gel filtration, AUC); the rows are of one chain with another; also called TvTIM1; TIM1WT
stoichiometry N [10]: 2
